The assay addresses Isolated Mac-1 (αMβ2, CD11b/CD18) (UniProt P11215 17-1152; P05107 23-769). Put plainly: ELISA. Background: In an ELISA, binding on a coated surface is turned into a signal by an enzyme label.

By IC50 is commonly meant the concentration at which inhibition is half-maximal.

B1: Recombinant soluble mouse RAGE (receptor)
chain: GQNITARIGEPLVLSCKGAPKKPPQQLEWKLNTGRTEAWKVLSPQGGPWDSVARILPNGSLLLPATGIVDEGTFRCRATNRRGKEVKSNYRVRVYQIPGKPEIVDPASELTASVPNKVGTCVSEGSYPAGTLSWHLDGKLLIPDGKETLVKEETRRHPETGLFTLRSELTVIPTQGGTHPTFSCSFSLGLPRRRPLNTAPIQLRVREPGPPEGIQLLVEPEGGIVAPGGTVTLTCAISAQPPPQVHWIKDGAPLPLAPSPVLLLPEVGHEDEGTYSCVATHPSHGPQESPPVSIRVTETGDEGPAEGSVGESGLGTLA
On to B1, for which the half-inhibitory concentration (IC50) was approximately 175 nM.

The values are drawn from article PMC2194124 (The Journal of Experimental Medicine, 2003).
